Assay results taken from patent US20120190039A1 (MOUNT SINAI HOSPITAL, published 2012).
Each block holds one molecule with its values, some of them ahead of it.

Legend:
[1] = molecular target: B-RAF_L487R (human B-RAF kinase domain, residues 448-723) (human) (UniProt P15056); experiment: analytical ultracentrifugation, equilibrium sedimentation, self-association
[2] = molecular target: B-RAF_L487R/E558K (human B-RAF kinase domain, residues 448-723) (human) (UniProt P15056); experiment: as above
[3] = molecular target: B-RAF_R481H (human B-RAF kinase domain, residues 448-723) (human) (UniProt P15056); experiment: as above
[4] = molecular target: MEK (overexpressed in S2 cells) (UniProt Q24324 1-396); experiment: co-immunoprecipitation from S2 cells
Chain of MEK (overexpressed in S2 cells) (Q24324 whole entry): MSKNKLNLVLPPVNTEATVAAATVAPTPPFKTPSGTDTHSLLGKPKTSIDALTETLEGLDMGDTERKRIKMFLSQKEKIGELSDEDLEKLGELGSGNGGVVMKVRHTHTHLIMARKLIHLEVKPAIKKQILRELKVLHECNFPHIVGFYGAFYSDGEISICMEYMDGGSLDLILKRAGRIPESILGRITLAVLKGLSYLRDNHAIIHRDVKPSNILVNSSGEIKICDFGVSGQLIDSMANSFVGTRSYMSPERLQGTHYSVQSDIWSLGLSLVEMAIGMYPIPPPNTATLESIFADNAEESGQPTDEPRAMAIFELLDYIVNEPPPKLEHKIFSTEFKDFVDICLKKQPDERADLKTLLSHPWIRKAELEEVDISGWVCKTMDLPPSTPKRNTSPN
Experimental: S2 cells were maintained in serum-free insect cell medium (Sigma) at 27° C. Cells were seeded at a density of 1.75×10⁶ cells/ml 24 h prior to transfection. Between 10 to 300 ng (or up to 900 ng for KSR_R732H) of DNA was transfected per construct using Effectene (Qiagen). dsRNAs were produced and used in RNAi experiments as described (Roy, F., Laberge, G., Douziech, M., Ferland-McCollough, D. & Therrien, M. KSR is a scaffold required for activation of the ERK/MAPK module. Genes Dev 16, 427-38 (2002)). Protein expression was induced by adding CuSO₄ (0.7 mM) 36 h before harvesting the cells. For FRB/FKBP-mediated dimer formation, rapamycin (Sigma) was added ([…]) to the medium 2 h prior to harvesting the cells. Lysates, immunoprecipitations, western blot procedures and antibodies were essentially as previously described (Douziech, M., Sahmi, M., Laberge, G. & Therrien, M. A, KSR/CNK complex mediated by HYP, a novel SAM domain-containing protein, regulates RAS-dependent RAF activation in Drosophila, Genes Dev, 20, 807-19 (2006)).

Molecule: B-RAF_L487R/E558K (human B-RAF kinase domain, residues 448-723) (from UniProt P15056 448-723) (enzyme)
average molecular weight (global self association fit) [2]: 55500 Da
ratio of the observed average MW to the theoretical MW of the monomer [2]: 1.8

Molecule: B-RAF_R481H (human B-RAF kinase domain, residues 448-723) (from UniProt P15056 448-723) (enzyme)
average molecular weight (global self association fit) [3]: 34500 Da
ratio of the observed average MW to the theoretical MW of the monomer [3]: 1.1

Now from value to molecule:

average molecular weight (global self association fit) [1]: 48600 Da
ratio of the observed average MW to the theoretical MW of the monomer [1]: 1.5
Molecule: B-RAF_L487R (human B-RAF kinase domain, residues 448-723) (from UniProt P15056 448-723) (enzyme)

binding result [4]: no binding
B1: KSR-RAF chimera-A (KSR 1-665 fused to RAF 417-739, K455M) (other)
chain: MSSNNNAPASAPDTGSTNANDPISGSLSVDSNLVIIQDMIDLSANHLEGLRTQCAISSTLTQQEIRCLESKLVRYFSELLLAKMRLNERIPANGLVPHTTGNELRQWLRVVGLSQGTLTACLARLTTLEQSLRLSDEEIRQLLADSPSQREEEELRRLTRAMQNLRKCMESLESGTAASNNDPEQWHWDSWDRPTHIHRGSVGNIGLGNNSTASPRTHHRQHGVKGKNSALANSTNFKSGRQSPSATEELNSTQGSQLTLTLTPSPPNSPFTPSSGLSSSLNGTPQRSRGTPPPARKHQTLLSQSHVQVDGEQLARNRLPTDPSPDSHSSTSSDIFVDPNTNASSGGSSSNVLMVPCSPGVGHVGMGHAIKHRFTKALGFMATCTLCQKQVFHRWMKCTDCKYICHKSCAPHVPPSCGLPREYVDEFRHIKEQGGYASLPHVHGAAKGSPLVKKSTLGKPLHQQHGDSSSPSSSCTSSTPSSPALFQQRERELDQAGSSSSANLLPTPSLGKHQPSQFNFPNVTVTSSGGSGGVSLISNEPVPEQFPTAPATANGGLDSLVSSSNGHMSSLIGSQTSNASTAATLTGSLVNSTTTTSTCSFFPRKLSTAGVDKRTPFTSEYTDTHKSNDSDKTVSLSGSASTDSDRTPVRVDSTEDGDSGQWRQNSSEENWNILAEEILIGPRIGSGSFGTVYRAHWHGPVAVMTLNVKTPSPAQLQAFKNEVAMLKKTRHCNILLFMGCVSKPSLAIVTQWCEGSSLYKHVHVSETKFKLNTLIDIGRQVAQGMDYLHAKNIIHRDLKSNNIFLHEDLSVKIGDFGLATAKTRWSGEKQANQPTGSILWMAPEVIRMQELNPYSFQSDVYAFGIVMYELLAECLPYGHISNKDQILFMVGRGLLRPDMSQVRSDAPQALKRLAEDCIKYTPKDRPLFRPLLNMLENMLRTLPKIHRSASEPNLTQSQLQNDEFLYLPSPKTPVNFNNFQFFGSAGNI
